Assays:
[1] = target: HLA-A*3303 (A33) single antigen on beads (human); assay: Luminex single-antigen regular beads (#7), IVIg 1:8
[2] = target: HLA-A*2902 (A29) single antigen on beads (human); assay: as above
[3] = target: HLA-A*6801 (A68) single antigen on beads (human); assay: as above
[4] = target: HLA-A*3001 (A30) single antigen on beads (human); assay: as above
[5] = target: HLA-A*6601 (A66) single antigen on beads (human); assay: as above
[6] = target: HLA-A*3402 (A34) single antigen on beads (human); assay: as above
[7] = target: HLA-A*3002 (A30) single antigen on beads (human); assay: as above
[8] = target: HLA-A*3601 (A36) single antigen on beads (human); assay: as above
[9] = target: HLA-A*3301 (A33) single antigen on beads (human); assay: as above
[10] = target: HLA-A*3201 (A32) single antigen on beads (human); assay: as above
[11] = target: HLA-A*3101 (A31) single antigen on beads (human); assay: as above
[12] = target: HLA-A*6602 (A66) single antigen on beads (human); assay: as above
[13] = target: HLA-A*3401 (A34) single antigen on beads (human); assay: as above
HLA-B*1301 (B13) (human) = assay: Luminex iBeads (#6), IVIg diluted 1:8
[14] = target: Serum albumin on negative control beads (HSA/BSA) (human or bovine); assay: Luminex iBeads (#6), IVIg diluted 1:8
HLA-B*1512 (B76) (human) = assay: Luminex iBeads (#6), IVIg diluted 1:8
HLA-B*1501 (B62) (human) = assay: Luminex iBeads (#6), IVIg diluted 1:8
HLA-B*0702 (B7) (human) = assay: Luminex iBeads (#6), IVIg diluted 1:8
HLA-B*1801 (B18) (human) = assay: Luminex iBeads (#6), IVIg diluted 1:8
HLA-B*1516 (B63) (human) = assay: Luminex iBeads (#6), IVIg diluted 1:8
HLA-B*1402 (B65) (human) = assay: Luminex iBeads (#6), IVIg diluted 1:8
HLA-B*1302 (B13) (human) = assay: Luminex iBeads (#6), IVIg diluted 1:8
HLA-B*1511 (B75) (human) = assay: Luminex iBeads (#6), IVIg diluted 1:8
HLA-B*0801 (B8) (human) = assay: Luminex iBeads (#6), IVIg diluted 1:8
HLA-B*1513 (B77) (human) = assay: Luminex iBeads (#6), IVIg diluted 1:8
HLA-B*1503 (B72) (human) = assay: Luminex iBeads (#6), IVIg diluted 1:8
HLA-B*1510 (B71) (human) = assay: Luminex iBeads (#6), IVIg diluted 1:8
HLA-B*1502 (B75) (human) = assay: Luminex iBeads (#6), IVIg diluted 1:8
[15] = target: HLA-Cw*0303 (Cw9) (human); assay: Luminex, iBead vs regular bead MFI, 1:8
[16] = target: HLA-Cw*0801 (Cw8) (human); assay: Luminex, iBead vs regular bead MFI, 1:8
[17] = target: HLA-Cw*0501 (Cw5) (human); assay: Luminex, iBead vs regular bead MFI, 1:8
[18] = target: HLA-Cw*0102 (Cw1) (human); assay: Luminex, iBead vs regular bead MFI, 1:8
[19] = target: HLA-Cw*0401 (Cw4) (human); assay: Luminex, iBead vs regular bead MFI, 1:8
[20] = target: Albumin (negative control beads) (human or bovine); assay: Luminex, iBead vs regular bead MFI, 1:8
[21] = target: HLA-Cw*1701 (Cw17) (human); assay: Luminex, iBead vs regular bead MFI, 1:8
[22] = target: HLA-Cw*1502 (Cw15) (human); assay: Luminex, iBead vs regular bead MFI, 1:8
HLA-B*8201 (B82) (human) = assay: Luminex, iBead vs regular bead MFI, 1:8
[23] = target: HLA-Cw*0202 (Cw2) (human); assay: Luminex, iBead vs regular bead MFI, 1:8
[24] = target: HLA-Cw*0302 (Cw10) (human); assay: Luminex, iBead vs regular bead MFI, 1:8
[25] = target: HLA-A*8001 (A80) single antigen on Luminex beads (human); assay: Luminex single antigen bead assay, regular beads (#7), IVIg 1:8
[26] = target: HLA-A*6901 (A69) single antigen on Luminex beads (human); assay: as above
[27] = target: HLA-A*7401 (A74) single antigen on Luminex beads (human); assay: as above
[28] = target: HLA-A*8001 (A80) single antigen on Luminex beads (human); assay: Luminex single antigen bead assay, iBeads (#6), IVIg 1:8
[29] = target: HLA-A*6901 (A69) single antigen on Luminex beads (human); assay: as above
[30] = target: HLA-A*6802 (A68) single antigen on Luminex beads (human); assay: as above

Substance “IVIg GamaSTAN S/D (Talecris Biotherapeutics, USA) (antibody)” has an MFI [1] of 322 MFI, an MFI [2] of 991 MFI and an MFI [3] of 192 MFI. It also gave an MFI [4] of 924 MFI, an MFI [5] of 1410 MFI and an MFI [6] of 684 MFI. For the same substance, the MFI [7] was 1050 MFI, the MFI [8] was 564 MFI and the MFI [9] was 1120 MFI. The MFI [10] was 856 MFI, the MFI [11] was 121 MFI and the MFI [12] was 2360 MFI. For the same substance, the MFI [13] was 3040 MFI, the MFI (HLA-B*1301 (B13) (human)) was 1840 MFI and the MFI [14] was 5030 MFI. It also gave an MFI (HLA-B*1512 (B76) (human)) of 5970 MFI, an MFI (HLA-B*1501 (B62) (human)) of 394 MFI and an MFI (HLA-B*0702 (B7) (human)) of 2010 MFI. The MFI (HLA-B*1801 (B18) (human)) was 0 MFI, the MFI (HLA-B*1516 (B63) (human)) was 3280 MFI and the MFI (HLA-B*1402 (B65) (human)) was 0 MFI. For the same substance, the MFI (HLA-B*1302 (B13) (human)) was 1200 MFI, the MFI (HLA-B*1511 (B75) (human)) was 2380 MFI and the MFI (HLA-B*0801 (B8) (human)) was 324 MFI. The MFI (HLA-B*1513 (B77) (human)) was 904 MFI, the MFI (HLA-B*1503 (B72) (human)) was 0 MFI and the MFI (HLA-B*1510 (B71) (human)) was 492 MFI. It also gave an MFI (HLA-B*1502 (B75) (human)) of 709 MFI, a Difference % [15] of -9% and a Difference % [16] of -32%. The Difference % [17] was -9%, the Difference % [18] was -38% and the Difference % [19] was -20%. It also gave a Difference % [20] of 33%, a Difference % [21] of 22% and a Difference % [22] of 24%. For the same substance, the Difference % (HLA-B*8201 (B82) (human)) was 10% and the Difference % [23] was 13%.

Work on IVIg Gamunex-C Lot NKLG1 (antibody) yielded an MFI [1] of 476 MFI, an MFI [2] of 1750 MFI and an MFI [3] of 0 MFI. For the same substance, the MFI [5] was 648 MFI, the MFI [6] was 0 MFI and the MFI [7] was 896 MFI. It also gave an MFI [8] of 916 MFI, an MFI [9] of 1690 MFI and an MFI [10] of 875 MFI. For the same substance, the MFI [11] was 166 MFI, the MFI [13] was 3540 MFI and the MFI (HLA-B*1301 (B13) (human)) was 3560 MFI. The MFI [14] was 7150 MFI, the MFI (HLA-B*1512 (B76) (human)) was 2810 MFI and the MFI (HLA-B*1501 (B62) (human)) was 749 MFI. For the same substance, the MFI (HLA-B*1801 (B18) (human)) was 1140 MFI, the MFI (HLA-B*1516 (B63) (human)) was 2400 MFI and the MFI (HLA-B*1402 (B65) (human)) was 929 MFI. For the same substance, the MFI (HLA-B*1302 (B13) (human)) was 1710 MFI, the MFI (HLA-B*1511 (B75) (human)) was 3380 MFI and the MFI (HLA-B*0801 (B8) (human)) was 1510 MFI. For the same substance, the MFI (HLA-B*1513 (B77) (human)) was 2350 MFI, the MFI (HLA-B*1503 (B72) (human)) was 507 MFI and the MFI (HLA-B*1510 (B71) (human)) was 1450 MFI. For the same substance, the Difference % [15] was 1%, the Difference % [16] was -40% and the Difference % [17] was -47%. It also gave a Difference % [18] of -2%, a Difference % [19] of -51% and a Difference % [24] of -2%. It also gave a Difference % [21] of -6%, a Difference % (HLA-B*8201 (B82) (human)) of -55% and a Difference % [23] of -32%. It also gave an MFI [25] of 3190 MFI, an MFI [26] of 2810 MFI and an MFI [27] of 666 MFI. The MFI [28] was 3970 MFI, the MFI [29] was 6240 MFI and the MFI [30] was 4660 MFI.

— patent US10800847
